According to paper PMC11186766:

Key:
[1] = biological target: full-length rat GluK2 kainate receptor (rat) (UniProt P42260); assay: cryo-EM structure; time-resolved cryo-EM: purified GluK2 at 60 uM incubated with 500 uM BPAM344 for 20-30 min on ice, 90 uM succinylated concanavalin A added, 10 mM L-glutamate applied less than 3 s before plunge-freezing; 150 mM NaCl, 20 mM Tris-HCl pH 8.0, 0.05% digitonin
[2] = biological target: succinylated concanavalin A; assay: as above

stoichiometry N [1] | stoichiometry N [2] | Substance
4 |  | full-length rat GluK2 kainate receptor (from UniProt P42260 32-908)
 | 2 | succinylated concanavalin A (natural protein)
